Consider seven substances from patent US20240158479A1.

Holding throughout (test): cell-based or functional assay
In assay [1] the target is Omicron BA.2.12.1 spike on pseudovirus (SARS-CoV-2).
The target in assay [2] is Gamma spike (P.1) on pseudovirus (SARS-CoV-2).
In assay [3] the target is Omicron BQ.1.1 spike on pseudovirus (SARS-CoV-2).
The target of assay [4] is Omicron BA.4.6 spike on pseudovirus (SARS-CoV-2).
The target in assay [5] is Omicron BA.4/5 spike on pseudovirus (SARS-CoV-2).
In assay [6] the target is Omicron BA.1 spike on pseudovirus (SARS-CoV-2).
For assay [7], the target named is Omicron BA.2 spike on pseudovirus (SARS-CoV-2).
Assay [8] has as its target Beta spike (B.1.351) on pseudovirus (SARS-CoV-2).
Assay [9] concerns the target Alpha spike (B.1.1.7) on pseudovirus (SARS-CoV-2).
For assay [10], the target named is Omicron BA.2.75 spike on pseudovirus (SARS-CoV-2).
Assay [11] has as its target Delta spike (B.1.617.2) on pseudovirus (SARS-CoV-2).

Consider Bamlanivimab (antibody), for which the IC50, pseudovirus neutralization is over 5 µg/mL in [1]; 1.4 µg/mL in [2]; over 5 µg/mL in [3]; over 5 µg/mL in [4]; over 5 µg/mL in assay [5]; over 5 µg/mL in [6]. The IC50, pseudovirus neutralization is over 5 µg/mL in [7]; 0.21 µg/mL in [8]; 0.0034 µg/mL in assay [9]; over 5 µg/mL in assay [10]; 0.59 µg/mL in assay [11].
With Bebtelovimab (antibody), the IC50, pseudovirus neutralization in [1] was 0.0023 µg/mL; in assay [2], 0.0017 µg/mL; in [3], over 5 µg/mL; in assay [4] it was 0.0013 µg/mL; in [5] it was 0.0014 µg/mL; in assay [6] it was 0.0023 µg/mL. Besides, the IC50, pseudovirus neutralization in assay [7] amounted to 0.0018 µg/mL; in [8], 0.0009 µg/mL; in assay [9] it was 0.002 µg/mL; in assay [10], 0.0033 µg/mL; in assay [11], 0.0015 µg/mL.
On to Casirivimab (antibody), for which the IC50, pseudovirus neutralization in assay [1] is over 5 µg/mL; in [2] it was 0.18 µg/mL; in assay [3], over 5 µg/mL; in assay [4], over 5 µg/mL; in assay [5], over 5 µg/mL; in [6], over 5 µg/mL. For the same substance, the IC50, pseudovirus neutralization in [7] is over 5 µg/mL; in assay [8], 0.094 µg/mL; in assay [9], 0.0052 µg/mL; in assay [10], 0.44 µg/mL; in [11] it was 0.0027 µg/mL.
As for Cilgavimab (antibody), the IC50, pseudovirus neutralization in assay [1] is 0.019 µg/mL; in assay [2] it was 0.005 µg/mL; in assay [3], over 5 µg/mL; in [4] it was over 5 µg/mL; in assay [5], 0.018 µg/mL; in assay [6], 0.21 µg/mL. Further, the IC50, pseudovirus neutralization was 0.0091 µg/mL in assay [7]; 0.003 µg/mL in assay [8]; 0.01 µg/mL in [9]; 0.055 µg/mL in assay [10]; 0.018 µg/mL in [11].
Regarding Etesevimab (antibody), the IC50, pseudovirus neutralization in [1], in assay [2], in assay [3], in assay [4], in assay [5] and in assay [6] was over 5 µg/mL in each case. For the same substance, the IC50, pseudovirus neutralization in assay [7] was over 5 µg/mL; in assay [8], over 5 µg/mL; in assay [9], 0.1 µg/mL; in [10], over 5 µg/mL; in [11], 0.0058 µg/mL.
As for Imdevimab (antibody), the IC50, pseudovirus neutralization in assay [1] was 0.1 µg/mL; in assay [2] it was 0.0019 µg/mL; in assay [3], over 5 µg/mL; in assay [4], 0.18 µg/mL; in assay [5], 0.32 µg/mL; in [6] it was over 5 µg/mL. Also, the IC50, pseudovirus neutralization in assay [7] was 0.51 µg/mL; in [8] it was 0.0028 µg/mL; in [9] it was 0.0028 µg/mL; in assay [10], over 5 µg/mL; in [11], 0.0035 µg/mL.
With Tixagevimab (antibody), the IC50, pseudovirus neutralization in assay [1] is 0.56 µg/mL; in [2] it was 0.006 µg/mL; in assay [3], over 5 µg/mL; in [4], over 5 µg/mL; in [5] it was over 5 µg/mL; in assay [6] it was 0.14 µg/mL. The IC50, pseudovirus neutralization in assay [7] was over 5 µg/mL; in [8] it was 0.0054 µg/mL; in assay [9], 0.0017 µg/mL; in [10] it was 0.11 µg/mL; in assay [11], 0.0008 µg/mL.
